Measured values as given in article PMC6086383 (Archives of biochemistry and biophysics, 2018).

Biological target: porcine milk butyrylcholinesterase (Sus scrofa (domestic pig), UniProt A0A4X1VEU5)
Assay: ELISA

porcine milk butyrylcholinesterase, sequence (P32752 whole entry): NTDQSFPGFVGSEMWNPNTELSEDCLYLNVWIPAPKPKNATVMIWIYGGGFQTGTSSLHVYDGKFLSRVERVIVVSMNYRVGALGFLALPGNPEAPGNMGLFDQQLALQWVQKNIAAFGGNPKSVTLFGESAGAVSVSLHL

B1: mouse anti-HuBChE monoclonal antibody B2 18-5 (antibody, V domains shown)
VH: QVQLQQSGAELVRPGSSVKISCKASGYAFSDYWMNWVKQRPGQGLEWIGQIYPGDGDTYYNGKFKGKATLTADKSSSTAYMQLSSLISEDSAVYFCARSRPLLDYSMHYWGQGASVTVSS
VL: DIQMTQSSSSFSVSLGDRVTITCKTSEDIYNRLAWYQQKPGNAPRLLISGATSLETGVPSRFSGSGSGEDFTLSITSLQTEDVATYYCQQYWSTPYTFGGGTKLEIK
  binding result: no binding
